Reference: patent US20120322725A1 (INDIANA UNIVERSITY RESEARCH AND TECHNOLOGY, published 2012)
Read-outs that look alike come from different tables or passages of the source. Bridge positions count the residues as written; N and C are the ends. Square brackets hold non-standard residues; d marks the D form. Ends that are not written are not given here. PLA = 3-phenyllactic acid (2-hydroxy-3-phenylpropanoic acid); Abu(4-SO3H) = N[C@@H](CCS(=O)(=O)O)C(=O)O; PhLac = O=C(O)[C@@H](O)Cc1ccccc1

Columns and labels:
GLP-1 receptor [1] = biological target: T1, GLP-1 receptor (UniProt P43220 24-463, limits assumed); assay: cell-based or functional assay
glucagon receptor [2] = biological target: T2, glucagon receptor (UniProt P47871 26-477, limits assumed); assay: cell-based or functional assay
T2 sequence (P47871 26-477 limits assumed): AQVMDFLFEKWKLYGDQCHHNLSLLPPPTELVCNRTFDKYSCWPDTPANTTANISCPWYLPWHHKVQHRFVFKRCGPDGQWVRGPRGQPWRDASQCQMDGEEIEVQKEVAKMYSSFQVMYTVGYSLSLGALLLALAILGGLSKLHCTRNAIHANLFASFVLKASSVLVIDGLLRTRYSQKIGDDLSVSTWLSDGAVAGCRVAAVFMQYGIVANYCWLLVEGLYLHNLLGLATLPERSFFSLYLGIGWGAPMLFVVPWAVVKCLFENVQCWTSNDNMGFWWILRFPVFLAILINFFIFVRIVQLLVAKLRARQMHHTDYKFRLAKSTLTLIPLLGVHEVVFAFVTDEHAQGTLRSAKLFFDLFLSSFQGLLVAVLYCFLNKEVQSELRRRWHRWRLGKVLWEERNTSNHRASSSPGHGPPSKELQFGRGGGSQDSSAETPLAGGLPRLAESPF

glucagon receptor [3] = biological target: T2, glucagon receptor; assay: column IC50(nM) beside the cAMP columns of Table H; taken as receptor binding
glucagon receptor [4] = biological target: T2, glucagon receptor; assay: cell-based or functional assay; remark: listed apart in the source
glucagon receptor [5] = biological target: T2, glucagon receptor; assay: cell-based or functional assay; remark: listed apart in the source
glucagon receptor [6] = biological target: T2, glucagon receptor; assay: receptor binding, method not described
glucagon receptor [7] = biological target: T2, glucagon receptor; assay: cell-based or functional assay; remark: listed apart in the source
GLP-1 receptor [8] = biological target: T1, GLP-1 receptor; assay: cell-based or functional assay; remark: listed apart in the source
glucagon receptor [9] = biological target: T2, glucagon receptor; assay: cell-based or functional assay; remark: listed apart in the source
glucagon receptor [10] = biological target: T2, glucagon receptor; assay: receptor binding, method not described; remark: listed apart in the source
glucagon receptor [11] = biological target: T2, glucagon receptor; assay: receptor binding, method not described; remark: listed apart in the source
glucagon receptor [12] = biological target: T2, glucagon receptor; assay: cell-based or functional assay; remark: listed apart in the source
glucagon receptor [13] = biological target: T2, glucagon receptor; assay: cell-based or functional assay; remark: listed apart in the source
glucagon receptor [14] = biological target: T2, glucagon receptor; assay: receptor binding, method not described; remark: listed apart in the source
glucagon receptor [15] = biological target: T2, glucagon receptor; assay: receptor binding (named so for the same values in Table I), method not described

B1: ANK2 (Bayer peptide) (peptide)
peptide: HSQGTFTSDYARYLDARRAREFIKWLVRGRG
GLP-1 EC50 (GLP-1 receptor [1]): 0.28 nM

B2: [Ac-PLA^6, E^9]Glucagon(aa6-29)-NH2 (peptide)
peptide: {Ac-PLA}-TSEYSKYLDSRRAQDFVQWLMNT-NH2
IC50(nM) (cAMP, inhibit 0.8 mM Glucagon) (glucagon receptor [2]): 38.1 nM

B3: [hCys^9(SO3H)]Glucagon(aa5-29)-NH2 (peptide)
peptide: TFTSXYSKYLDSRRAQDFVQWLMNT
HELM: PEPTIDE1{T.F.T.S.[O=C([C@H](CCS(=O)(=O)O)N[*:1])[*:2]].Y.S.K.Y.L.D.S.R.R.A.Q.D.F.V.Q.W.L.M.N.T.[am]}$$$$V2.0; N-terminus assumed
SMILES: CSCC[C@H](NC(=O)[C@H](CC(C)C)NC(=O)[C@H](Cc1c[nH]c2ccccc12)NC(=O)[C@H](CCC(N)=O)NC(=O)[C@@H](NC(=O)[C@H](Cc1ccccc1)NC(=O)[C@H](CC(=O)O)NC(=O)[C@H](CCC(N)=O)NC(=O)[C@H](C)NC(=O)[C@H](CCCNC(=N)N)NC(=O)[C@H](CCCNC(=N)N)NC(=O)[C@H](CO)NC(=O)[C@H](CC(=O)O)NC(=O)[C@H](CC(C)C)NC(=O)[C@H](Cc1ccc(O)cc1)NC(=O)[C@H](CCCCN)NC(=O)[C@H](CO)NC(=O)[C@H](Cc1ccc(O)cc1)NC(=O)[C@H](CCS(=O)(=O)O)NC(=O)[C@H](CO)NC(=O)[C@@H](NC(=O)[C@H](Cc1ccccc1)NC(=O)[C@@H](N)[C@@H](C)O)[C@@H](C)O)C(C)C)C(=O)N[C@@H](CC(N)=O)C(=O)N[C@H](C(N)=O)[C@@H](C)O
IC50 (glucagon receptor [3]): 33.9 nM | cAMP IC50 (glucagon receptor [4]): 98.3 nM | cAMP pA2 (glucagon receptor [4]): 6.77

B4: [hCys^9(SO3H)]Glucagon(aa4-29)-NH2 (peptide)
peptide: GTFTSXYSKYLDSRRAQDFVQWLMNT
HELM: PEPTIDE1{G.T.F.T.S.[O=C([C@H](CCS(=O)(=O)O)N[*:1])[*:2]].Y.S.K.Y.L.D.S.R.R.A.Q.D.F.V.Q.W.L.M.N.T.[am]}$$$$V2.0; N-terminus assumed
SMILES: CSCC[C@H](NC(=O)[C@H](CC(C)C)NC(=O)[C@H](Cc1c[nH]c2ccccc12)NC(=O)[C@H](CCC(N)=O)NC(=O)[C@@H](NC(=O)[C@H](Cc1ccccc1)NC(=O)[C@H](CC(=O)O)NC(=O)[C@H](CCC(N)=O)NC(=O)[C@H](C)NC(=O)[C@H](CCCNC(=N)N)NC(=O)[C@H](CCCNC(=N)N)NC(=O)[C@H](CO)NC(=O)[C@H](CC(=O)O)NC(=O)[C@H](CC(C)C)NC(=O)[C@H](Cc1ccc(O)cc1)NC(=O)[C@H](CCCCN)NC(=O)[C@H](CO)NC(=O)[C@H](Cc1ccc(O)cc1)NC(=O)[C@H](CCS(=O)(=O)O)NC(=O)[C@H](CO)NC(=O)[C@@H](NC(=O)[C@H](Cc1ccccc1)NC(=O)[C@@H](NC(=O)CN)[C@@H](C)O)[C@@H](C)O)C(C)C)C(=O)N[C@@H](CC(N)=O)C(=O)N[C@H](C(N)=O)[C@@H](C)O
IC50 (glucagon receptor [3]): 41.5 nM | cAMP IC50 (glucagon receptor [4]): 68.4 nM | cAMP pA2 (glucagon receptor [4]): 7.22

B5: [hCys^9(SO3H)]Glucagon(aa6-29)-NH2 (peptide)
peptide: FTS[Abu(4-SO3H)]YSKYLDSRRAQDFVQWLMNT-NH2
notes: also called [hCys(SO3)9]Glucagon(aa6-29)-NH2
IC50 (glucagon receptor [3]): 59.1 nM | cAMP IC50 (glucagon receptor [5]): 133 nM | cAMP pA2 (glucagon receptor [5]): 7.16 | IC50 (glucagon receptor [6]): 59.1 nM | cAMP IC50 (glucagon receptor [4]): 133 nM | cAMP pA2 (glucagon receptor [4]): 7.16

B6: [PLA6, D9, K12E16(Lactam), D28]G(6-29) (peptide)
peptide: TSDYSKYLDERRAQDFVQWLMDT
modifications: not fully specified; PLA at position 6, N-terminal to the letters given; lactam between K12 and E16
GLP-1 EC50 (GLP-1 receptor [1]): 177 nM | Glucagon IC50 (glucagon receptor [7]): 63 nM | GLP-1 EC50 (GLP-1 receptor [8]): 21 nM | Glucagon IC50 (glucagon receptor [9]): 13 nM

B7: [PLA6, E9]Glucagon(aa6-29)-NH2 (peptide)
peptide: [PhLac]TSEYSKYLDSRRAQDFVQWLMNT-NH2
IC50 (glucagon receptor [10]): 12.3 nM | IC50 (glucagon receptor [11]): 12.3 nM | IC50(nM) (cAMP, inhibit 0.8 mM Glucagon) (glucagon receptor [2]): 64.8 nM

B8: [PLA6, D9, E16K20(lactam), D28]G(6-29) (peptide)
peptide: {PLA}-TSDYSKYLDERRAKDFVQWLMDT-NH2
modifications: lactam 10-14
Glucagon IC50 (glucagon receptor [7]): 10 to 30 nM | GLP-1 EC50 (GLP-1 receptor [8]): 4 nM | Glucagon IC50 (glucagon receptor [9]): 6 nM

B9: [Glu^9]Glucagon(aa4-29)-NH2 (peptide)
peptide: GTFTSEYSKYLDSRRAQDFVQWLMNT-NH2
notes: also called peptide no
cAMP Inhibition IC50 (glucagon receptor [12]): 128 nM | cAMP pA2 (glucagon receptor [13]): 7.05

B10: [Glu^9]Glucagon(aa6-29)-NH2 (peptide)
peptide: FTSEYSKYLDSRRAQDFVQWLMNT-NH2
notes: also called [E^9]Glucagon(aa6-29)-NH2; peptide no
IC50 (glucagon receptor [14]): 36 nM | cAMP IC50 (glucagon receptor [5]): 97.2 nM | cAMP pA2 (glucagon receptor [5]): 7.16 | cAMP Inhibition IC50 (glucagon receptor [12]): 97 nM | IC50 (glucagon receptor [6]): 36.4 nM | IC50 (glucagon receptor [15]): 36.4 nM | cAMP (I/A)50 (glucagon receptor [13]): 486 | cAMP pA2 (glucagon receptor [13]): 7.16

B11: [E9, E16K20(lactam), D28]G(4~29) (peptide)
peptide: GTFTSEYSKYLDERRAKDFVQWLMDT
HELM: PEPTIDE1{G.T.F.T.S.E.Y.S.K.Y.L.D.E.R.R.A.K.D.F.V.Q.W.L.M.D.T.[am]}$PEPTIDE1,PEPTIDE1,13:R3-17:R3$$$V2.0; N-terminus assumed
SMILES: CSCC[C@H](NC(=O)[C@H](CC(C)C)NC(=O)[C@H](Cc1c[nH]c2ccccc12)NC(=O)[C@H](CCC(N)=O)NC(=O)[C@@H](NC(=O)[C@H](Cc1ccccc1)NC(=O)[C@H](CC(=O)O)NC(=O)[C@@H]1CCCCNC(=O)CC[C@H](NC(=O)[C@H](CC(=O)O)NC(=O)[C@H](CC(C)C)NC(=O)[C@H](Cc2ccc(O)cc2)NC(=O)[C@H](CCCCN)NC(=O)[C@H](CO)NC(=O)[C@H](Cc2ccc(O)cc2)NC(=O)[C@H](CCC(=O)O)NC(=O)[C@H](CO)NC(=O)[C@@H](NC(=O)[C@H](Cc2ccccc2)NC(=O)[C@@H](NC(=O)CN)[C@@H](C)O)[C@@H](C)O)C(=O)N[C@@H](CCCNC(=N)N)C(=O)N[C@@H](CCCNC(=N)N)C(=O)N[C@@H](C)C(=O)N1)C(C)C)C(=O)N[C@@H](CC(=O)O)C(=O)N[C@H](C(N)=O)[C@@H](C)O
GLP-1 EC50 (GLP-1 receptor [1]): 151 nM | Glucagon IC50 (glucagon receptor [7]): 10 to 30 nM

B12: [PLA^5, E^9]Glucagon(aa5-29)-NH2 (peptide)
peptide: {PLA}-FTSEYSKYLDSRRAQDFVQWLMNT-NH2
IC50(nM) (cAMP, inhibit 0.8 mM Glucagon) (glucagon receptor [2]): 328 nM
